Test results published in PMC9670971.
Values joined by “and” are separate entries in the source; they are usually repeats but may differ in a detail not shown here. Equal values may be shown once.

Biological target: Recombinant Mip (25 kDa) (L. pneumophila) (UniProt Q5ZXE0)
Experiment: co-IP

| Substance | antibody signal from Western blot (ImageJ) (relative units) | band intensity in Coomassie stained gel (ImageJ) (relative units) | band intensity at 15 kDa in Coomassie stained gel (ImageJ) (relative units) |
| --- | --- | --- | --- |
| Flagellin FlaA (LPC_0756), native (natural protein) | 4380 and 4310 | 5680 and 5740 |  |
| Lpc2061-6xHis-Tag (natural protein) | 4690 and 4520 | 1900 and 795 | 4600 and 7390 |
| SspB-Strep-TagII (natural protein) | 5030 and 5180 | 4300 and 4240 |  |
